T1: HPV16 E7 peptide on HLA-A*02:01 (human)
T1 peptide: YMLDLQPET

B1: CRTE7A2 TCR (variable regions fused to murine constant regions) (TCR, V domains shown)
V domain 1: RKEVEQDPGPFNVPEGATVAFNCTYSNSASQSFFWYRQDCRKEPKLLMSVYSSGNEDGRFTAQLNRASQYISLLIRDSKLSDSATYLCAVISAGTALIFGKGTTLSVSS
V domain 2: DAGVTQSPTHLIKTRGQQVTLRCSPKSGHDTVSWYQQALGQGPQFIFQYYEEEERQRGNFPDRFSGHQFPNYSSELNVNALLLGDSALYLCASSLGWRGGLYTEAFFGQGTRLTVVE
B2: CRTE7A2 (TCR, V domains shown)
Valpha: B1 V domain 1
Vbeta: DAGVTQSPTHLIKTRGQQVTLRCSPKSGHDTVSWYQQALGQGPQFIFQYYEEEERQRGNFPDRFSGHQFPNYSSELNVNALLLGDSALYLCASSLGWRGGLYTEAFFGQGTRLTVV

What was measured:
[1] = molecular target: HPV16 E7 11-19 epitope (…) presented by HLA-A*02:01 (HPV16; human); assay: cell-based or functional assay
[2] = molecular target: T1, HPV16 E7 peptide on HLA-A*02:01; assay: multimer staining

Row | Binder | activation level of the NFAT-GFP reporter gene in Jurkat cells co-incubated with peptide-loaded T2 cells (EC50) [1] | binding result [2]
1 | B1 | 31 nM | 
2 | B2 |  | recognises
